From the supplement of paper PMC10567573

B1: SPOPL (parent)
chain: AKREETKAMESQRAYRFVQGKDWG

Variants of: B1
Assay: protein stability index of a GFP-peptide fusion (GPS, HEK-293T) (PSI 1-6); higher = more stable
Conditions: c terminus: a fixed tail appended
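Note: lentivirally expressed fusions sorted by FACS into six bins by GFP to DsRed ratio, PSI derived from sequencing read proportions per bin multiplied by bin number.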

Variant | protein stability index
AKREETSAMESQRAYRFVQGKDWG [K7S] | 3.23
AKREETFAMESQRAYRFVQGKDWG [K7F] | 2.9
AKREETEAMESQRAYRFVQGKDWG [K7E] | 3.72
AKREETVAMESQRAYRFVQGKDWG [K7V] | 2.83
AKREETQAMESQRAYRFVQGKDWG [K7Q] | 3.04
AKREETYAMESQRAYRFVQGKDWG [K7Y] | 3.5
AKREETIAMESQRAYRFVQGKDWG [K7I] | 2.72
AKREETCAMESQRAYRFVQGKDWG [K7C] | 1.78
AKREETTAMESQRAYRFVQGKDWG [K7T] | 3.53
AKREETHAMESQRAYRFVQGKDWG [K7H] | 2.8
AKREETNAMESQRAYRFVQGKDWG [K7N] | 3.25
AKREETRAMESQRAYRFVQGKDWG [K7R] | 2.57
AKREETPAMESQRAYRFVQGKDWG [K7P] | 3.37
AKREETAAMESQRAYRFVQGKDWG [K7A] | 3.52
AKREETMAMESQRAYRFVQGKDWG [K7M] | 2.62
AKREETGAMESQRAYRFVQGKDWG [K7G] | 3.23
AKREETLAMESQRAYRFVQGKDWG [K7L] | 2.44
AKREETWAMESQRAYRFVQGKDWG [K7W] | 2.04
AKREETDAMESQRAYRFVQGKDWG [K7D] | 3.29
AKREETKAMESQDAYRFVQGKDWG [R13D] | 4.47
AKREETKAMESQLAYRFVQGKDWG [R13L] | 2.36
AKREETKAMESQFAYRFVQGKDWG [R13F] | 2.8
AKREETKAMESQIAYRFVQGKDWG [R13I] | 3.11
AKREETKAMESQGAYRFVQGKDWG [R13G] | 3.61

Variant | protein stability index
AKREETKAMESQEAYRFVQGKDWG [R13E] | 4.24
AKREETKAMESQCAYRFVQGKDWG [R13C] | 2.72
AKREETKAMESQHAYRFVQGKDWG [R13H] | 3.62
AKREETKAMESQAAYRFVQGKDWG [R13A] | 3.65
AKREETKAMESQKAYRFVQGKDWG [R13K] | 3.67
AKRNETKAMESQRAYRFVQGKDWG [E4N] | 2.54
AKRKETKAMESQRAYRFVQGKDWG [E4K] | 2.77
AKRGETKAMESQRAYRFVQGKDWG [E4G] | 2.81
AKRIETKAMESQRAYRFVQGKDWG [E4I] | 3.2
AKRDETKAMESQRAYRFVQGKDWG [E4D] | 3.26
AKRTETKAMESQRAYRFVQGKDWG [E4T] | 3
AKRRETKAMESQRAYRFVQGKDWG [E4R] | 2.44
AKRSETKAMESQRAYRFVQGKDWG [E4S] | 3.05
AKRAETKAMESQRAYRFVQGKDWG [E4A] | 2.96
AKRHETKAMESQRAYRFVQGKDWG [E4H] | 2.5
AKRYETKAMESQRAYRFVQGKDWG [E4Y] | 2.02
AKRFETKAMESQRAYRFVQGKDWG [E4F] | 2.21
AKRVETKAMESQRAYRFVQGKDWG [E4V] | 2.42
AKRWETKAMESQRAYRFVQGKDWG [E4W] | 2.59
AKRCETKAMESQRAYRFVQGKDWG [E4C] | 2.35
AKRPETKAMESQRAYRFVQGKDWG [E4P] | 2.96
AKRMETKAMESQRAYRFVQGKDWG [E4M] | 2.63
AKRLETKAMESQRAYRFVQGKDWG [E4L] | 2.26
AKRQETKAMESQRAYRFVQGKDWG [E4Q] | 2.65

Variant | protein stability index
AKYEETKAMESQRAYRFVQGKDWG [R3Y] | 2.93
AKWEETKAMESQRAYRFVQGKDWG [R3W] | 3.08
AKPEETKAMESQRAYRFVQGKDWG [R3P] | 2.67
AKQEETKAMESQRAYRFVQGKDWG [R3Q] | 3.22
AKSEETKAMESQRAYRFVQGKDWG [R3S] | 3.34
AKTEETKAMESQRAYRFVQGKDWG [R3T] | 2.88
AKVEETKAMESQRAYRFVQGKDWG [R3V] | 3.24
AKREETKAMEIQRAYRFVQGKDWG [S11I] | 2.44
AKREETKAMEWQRAYRFVQGKDWG [S11W] | 1.88
AKREETKAMELQRAYRFVQGKDWG [S11L] | 2.36
AKREETKAMEMQRAYRFVQGKDWG [S11M] | 2.33
AKREETKAMERQRAYRFVQGKDWG [S11R] | 2.96
AKREETKAMEHQRAYRFVQGKDWG [S11H] | 2.83
AKREETKAMEDQRAYRFVQGKDWG [S11D] | 4.06
AKREETKAMENQRAYRFVQGKDWG [S11N] | 3.47
AKREETKAMEQQRAYRFVQGKDWG [S11Q] | 3.58
AKREETKAMEPQRAYRFVQGKDWG [S11P] | 2.72
AKREETKAMETQRAYRFVQGKDWG [S11T] | 2.76
AKREETKAMECQRAYRFVQGKDWG [S11C] | 2.23
AKREETKAMEAQRAYRFVQGKDWG [S11A] | 2.07
AKREETKAMEGQRAYRFVQGKDWG [S11G] | 2.54
AKREETKAMEFQRAYRFVQGKDWG [S11F] | 2.14
AKREETKAMEVQRAYRFVQGKDWG [S11V] | 2.53
AKREETKAMEKQRAYRFVQGKDWG [S11K] | 3.15

Variant | protein stability index
AKREETKAMEYQRAYRFVQGKDWG [S11Y] | 2.59
AKREETKAMEEQRAYRFVQGKDWG [S11E] | 3.77
AKREETKAMASQRAYRFVQGKDWG [E10A] | 2.61
AKREETKAMQSQRAYRFVQGKDWG [E10Q] | 2.95
AKREETKAMDSQRAYRFVQGKDWG [E10D] | 3.02
AKREETKAMMSQRAYRFVQGKDWG [E10M] | 2.29
AKREETKAMCSQRAYRFVQGKDWG [E10C] | 2.63
AKREETKAMHSQRAYRFVQGKDWG [E10H] | 2.33
AKREETKAMGSQRAYRFVQGKDWG [E10G] | 2.69
AKREETKAMSSQRAYRFVQGKDWG [E10S] | 3
AKREETKAMWSQRAYRFVQGKDWG [E10W] | 2.4
AKREETKAMPSQRAYRFVQGKDWG [E10P] | 3.18
AKREETKAMYSQRAYRFVQGKDWG [E10Y] | 1.73
AKREETKAMKSQRAYRFVQGKDWG [E10K] | 2.96
AKREETKAMLSQRAYRFVQGKDWG [E10L] | 2.3
AKREETKAMNSQRAYRFVQGKDWG [E10N] | 3.34
AKREETKAMVSQRAYRFVQGKDWG [E10V] | 2.75
AKREETKAMFSQRAYRFVQGKDWG [E10F] | 2.37
AKREETKAMISQRAYRFVQGKDWG [E10I] | 2.15
AKREETKAMTSQRAYRFVQGKDWG [E10T] | 3.06
AKREETKAMRSQRAYRFVQGKDWG [E10R] | 2.39
AKREEFKAMESQRAYRFVQGKDWG [T6F] | 2.32
